From patent US20160024196A1 (Amgen, published 2016) come the findings set out here.

As usually defined, the Kd is the equilibrium constant for the complex coming apart. The low end stands for tighter binding, the high end for weaker binding. One may read the koff as a measure of how fast the partners let go of each other. The low end stands for slow dissociation, the high end for fast dissociation. In general, kon refers to a measure of how fast the partners come together. Low values mean slow association, high ones fast association.

Experiment [1] deals with T1, murine SFRP5 (mouse, UniProt Q9WU66 22-314, limits assumed).
T1 construct: also called mouse SFRP5; muSFRP5
T1 sequence: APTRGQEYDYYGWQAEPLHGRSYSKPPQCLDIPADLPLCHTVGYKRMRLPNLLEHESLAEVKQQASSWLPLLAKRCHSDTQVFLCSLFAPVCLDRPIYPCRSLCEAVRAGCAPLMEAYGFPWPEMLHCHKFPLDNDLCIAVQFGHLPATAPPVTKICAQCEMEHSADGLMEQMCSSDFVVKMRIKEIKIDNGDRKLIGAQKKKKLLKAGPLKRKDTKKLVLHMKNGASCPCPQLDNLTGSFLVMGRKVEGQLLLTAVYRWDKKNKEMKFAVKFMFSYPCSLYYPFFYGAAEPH
The experiment can be described thus: kinetics; method not stated (Table 12, repeats Table 8).

Experiment [2] deals with T1, murine SFRP5. As to the kind of experiment: kinetics; method and SFRP5 construct not stated (Table 8).

B1: anti-SFRP5 monoclonal antibody subclone 24C18.3 (antibody, IgG2b, V domains shown)
VH: QVQLTQSGAELVRPGASVKLSCKASGYTFTDYYINWVKQRPGQGLEWIARIYPGSGNTYYNEKFKGKATLTAEKSSSTAYMQLSSLTSEDSAVYFCAAYSASAMDYWGQGTSVTVSS
VL: NVVLTQSPASLAVSLGQRATISCRASESVDSYGKSFMYWYQQKPGQPPKLLIYLANNLESGVPARFSGSGSRTDFTLTIDPVEADDAASYYCQQNNEDPWTFGGGTKLEIK
notes: also called mu24C18.3
With B1, in the experiment with murine SFRP5 [1], the Kd was determined as 0.658 nM, the koff was found to be 7.36e-05 s⁻¹ and the kon stood at 112000 M⁻¹ s⁻¹. In the experiment with murine SFRP5 [2], this molecule came in with an equilibrium dissociation constant (Kd) of 0.658 nM, a koff of 7.36e-05 s⁻¹ and a kon of 112000 M⁻¹ s⁻¹.
